Data published in patent publication US9765332B2, “Oligonucleotides and methods for inhibiting or reducing bacterial biofilms” (INSERM (INSTITUT NATIONAL DE LA SANTE ET DE LA RECHERCHE …).
Substitutions are numbered along the chain they refer to. “Also recorded” adds a separate entry of the source.

What was measured:
[1] = system: E. coli; assay: E. coli growth in the presence of PNAs; assay type: cell-based
[2] = system: E. coli; assay: E. coli biofilm formation in the presence of PNAs; assay type: cell-based; settings: 20 μM of PNAs
Protocol: The inventors used peptide nucleic acids (PNAs) that hybridize to the CsgD mRNA sequence ranging from nucleic acid at position 128 to nucleic acid at position 151 in SEQ ID NO: 9. In the presence of 20 μM of PNAs corresponding to RydC 1-2tot sequence (SEQ ID NO: 10), E. coli biofilm formation was reduced about 50%.

[3] = system: csgD mRNA215; assay: Ribosome toeprint assays; assay type: biochemical, Escherichia coli; settings: RydC without Hfq (elevated amounts); Hfq without RydC (low amounts)
Protocol: (§1) After denaturation followed by renaturation at room temperature, annealing mixes containing 0.2 pmol csgD mRNA and 1 pmol of labelled primer were incubated for 15 min with or without various concentrations of RydC or Hfq. fMet-tRNA^fMet was then added for 5 min. Reverse transcription was started by adding 2 μL of AMV RT (NE Biolabs) and dNTPs for 15 min, then stopped by adding 10 μL of Buffer II (Ambion). The cDNAs and sequencing reactions were run on polyacrylamide gels, and signals detected using a PhosphorImager. Gel retardation assays are performed as previously described (4). 0.5 pmol of labelled RydC were incubated for 10 min at 37° C. with various concentrations (0-500 pmols) of unlabelled csgD mRNA215, csgD mRNAΔ5′UTR, or csgD mRNA100 in 1×TMN buffer (20 mM Tris-acetate pH 7.6, 100 mM sodium acetate, and 5 mM magnesium acetate). Samples were loaded onto a native 5% acrylamide gel and separated with 0.5×TBE at 4° C. Gels are dried and visualized (PhosphorImager).

[4] = system: csgD mRNA; assay: In vitro translation assays (PURESYSTEM); assay type: biochemical, Escherichia coli; settings: csgD mRNA503; for effect of adding Hfq on the translation regulation by the RydC mutant: 2-fold molar excess of Hfq
Protocol: In vitro translation of CsgD mRNA503 (2.5 pmols) using [^35S]-methionine was carried out with a PURESYSTEM (Cosmo Bio) following the manufacturer's instructions and as described previously (13). After RNA denaturation for 2 min at 85° C., chilling 2 min on ice, then renaturation for 5 min at 37° C. in TMN 1× buffer, a pre-complex between RydC and 10 pmol of Hfq was performed during 10 minutes at 37° C. To form the complex with the csgD mRNA, we again incubated for 10 min at 37° C. then translation assays were initiated by adding [^35S]-methionine and the PURESYSTEM classic II. Each reaction was denatured in a 1× Laemmli buffer at 95° C. for 5 min, loaded onto a 16% Tris-glycine gel, and visualized on a PhosphorImager.

[5] = system: csgD mRNA; assay: Native gel retardation assays; assay type: binding, Escherichia coli
Description: To generate the various csgD mRNA fragments as well as the sRNA's RydC, DNA templates containing a T7 promoter sequence were generated by PCR using the appropriate primers (Table S2) followed by in vitro transcription using a MEGAscript kit (Ambion) per the manufacturer's protocol. Transcription products were then electrophoresed onto a 6% PAGE containing 8M urea, excised from the gel, then […]. When necessary, purified RNA was dephosphorylated using CIP (New England Biolabs), 5′end-labelled with ATP γ-^32P (PerkinElmer) and T4 polynucleotide kinase (NE Biolabs), then treated with gel purification, passive elution, and ethanol precipitation.
as §1

[6] = system: CsgD protein; assay: Western blot with anti-CsgD antibodies during curli formation; assay type: cell-based, Escherichia coli; settings: induction of RydC expression; all times during curli synthesis
Description: (§2) Membranes were blocked in TBS containing 5% milk.

[7] = system: Escherichia coli; assay: Microtiter dish biofilm assay (crystal violet), RydC expression from pUC18-rydC; assay type: cell-based; settings: increased RydC expression (pUC18-rydC) vs isogenic strain; 48 hours incubation at 28° C.
[8] = system: Escherichia coli; assay: Curli formation on Congo red plates; assay type: cell-based; settings: stimulated RydC expression, 48 hours at 28° C.
[9] = system: Salmonella enterica (bongori); assay: Microtiter dish biofilm assay (crystal violet), RydC expression from pUC18-rydC; assay type: cell-based; settings: increased RydC expression (pUC18-rydC) vs isogenic strain; 48 hours incubation at 28° C.
[10] = system: CsgA protein; settings: stimulated RydC expression; YESCA plates, 0-48 hours
Protocol: E. coli K-12 MG1655Z1, S. sonnei and S. enterica strains and their derivatives were used (Table S1). RydC gene disruption and overexpression in E. coli cells were done as previously described (4). The biofilm assays were performed in 96-well polystyrene plates, as previously described (18). E. coli, S. enterica, and S. sonnei cells were grown aerobically under static conditions at 28° C. in half-diluted M9 media supplemented with a 0.4% glucose carbon source. After 48 h growth, planktonic cells were discarded and kept for growth evaluation at OD600 nm. Each well was washed twice with PBS and put into a ‘swimming pool’, pooled with the initial supernatant. Biofilm was developed in plates then dyed with crystal violet for 15 min at room temperature. The biofilm was recovered through application of an 80% absolute ethanol and 20% acetone solution and by pipetting up and down. After 2 further washes in ‘ethanol/acetone’, the number of surface-attached bacteria was estimated from the optical density at 590 nm and divided by the evaluation of growth at 600 nm. Curli expression was monitored for 48 h at 28° C. on Congo red plates (1% Casamino acids, 0.1% yeast extract, 20 μg ml^−1 Congo red and 10 μg ml^−1 Coomassie Brilliant Blue G). […]

[11] = system: csgD mRNA; assay: Northern blot of csgD mRNA during curli formation; assay type: cell-based, Escherichia coli; settings: induced RydC expression; throughout curli synthesis
[12] = system: Salmonella enterica (bongori); assay: Curli formation on Congo red plates; assay type: cell-based; settings: stimulated RydC expression, 48 hours at 28° C.
[13] = system: csgBA and csgA mRNA; assay: Northern blot of csgA and csgBA mRNAs during curli formation; assay type: cell-based, Escherichia coli; settings: high levels of RydC; after 10 h incubation
[14] = system: CsgB protein; assay: Western blot with anti-CsgB antibodies during curli formation; assay type: cell-based, Escherichia coli; settings: promoted RydC expression; after 48 h
Description: as §2

[15] = target: Hfq (Escherichia coli, UniProt P0A6X3 P0A6X3:2-102); assay: EMSA; Hfq binds csgD mRNA215 in absence of RydC; no Kd given; settings: tags: His tag implied by Ni2+ column purification, expressed from pTE607 in BL21(DE3); chain copies: 6; nine helices H1-H9
Chain of Hfq (P0A6X3 2-102, one chain of several): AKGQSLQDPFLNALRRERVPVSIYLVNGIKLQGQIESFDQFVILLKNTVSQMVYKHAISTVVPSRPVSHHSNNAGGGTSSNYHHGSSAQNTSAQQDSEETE

Molecule: AACATGATGAAACCCCGC (all peptide nucleic acid (PNA)) [RydC 1-2tot]
- effect on bacterial growth [1]: reducing E. coli growth
- reduction of E. coli biofilm formation [2]: about 50%

Molecule: Hfq: purified E. coli Hfq RNA-binding protein (RNA chaperone)
- ribosome loading / translation initiation on csgD mRNA215 (toeprint) [3]: prevent csgD mRNA translation initiation
- CsgD translation remaining (down to) ([4]; relative to translation without RydC and Hfq): 40%
- interaction of Hfq with csgD mRNA215 ([5]; absence of RydC): interacts

B1: Escherichia coli RydC small RNA (nucleic acid, listed as Escherichia coli)
chain: CUUCCGAUGUAGACCCGUAUUCUUCGCCUGUACCACGGGUCGGUUUUAGUACAGGCGUUUUCU
modifications: expressed or natural sequence
notes: trans-encoded 64 nt sRNA of enteric bacteria folding as a pseudoknot; expressed from pUC18-rydC or transcribed in vitro
- reduction of CsgD protein compared to isogenic strain [6]: up to five-fold
- reduction of biofilm formation [7]: about one-third
- ribosome loading / translation initiation on csgD mRNA215 (toeprint) [3]: reduced ribosome loading onto the csgD mRNA in a concentration-dependent manner
- curli formation [8]: lowered curli formation
- reduction of biofilm formation [9]: one-half
- reduction of the quantity of CsgA structural protein compared to wt [10]: up to 2.5 times
- reduction of CsgD translation ([4]; without Hfq): 20%
- csgD mRNA steady state levels compared to isogenic strain [11]: half
- complex formation with csgD mRNA100 ([5]; 31 nts of 5′UTR including TIS plus 69 nts coding sequence): duplex was detected; also recorded: lower than that with mRNA215
- ternary complex formation RydC-Hfq-csgD mRNA215 ([5]; Hfq 1:1 molar ratio to RydC, one-to-one molar ratio with csgD mRNA215): nearly all of the RydC is in the complex
- molar excess of csgD mRNA215 versus RydC needed for about half of RydC in complex ([5]; absence of Hfq): 1000 -fold molar excess
- complex formation with csgD mRNA115 ([5]; first 115 nts of the csgD mRNA 5′-end, up to 250-fold excess): unable to interact; also recorded: did not interact
- complex formation with csgD mRNAΔ5′UTR ([5]; mRNA lacking the 5′-UTR, starting at G+3): does not interact
- complex formation with csgD mRNA215 ([5]; no Hfq): duplex was detected
- curli formation [12]: lowered curli formation
- decrease of steady state levels of csgBA and csgA mRNA transcripts [13]: half
- reduction of CsgB nucleator protein compared to isogenic strain [14]: about two-fold

B2: Escherichia coli RydC H1 (nucleic acid)
chain: CUUCCGAUGUAGACCCGUAUUCUUCGCCUGUACCUGCCCAGGGUUUUAGUACAGGCGUUUUCUU
modifications: chemistry not given here
- effect on CsgD translation ([4]; absence of Hfq): increased efficacy and translation blockage

B3: Escherichia coli RydC H3 (nucleic acid)
chain: B2 chain with G12C, A13U, C14G, C15G, C16G, G17C, U18A
modifications: chemistry not given here
- activity for reducing CsgD translation relative to RydCH1 [4]: ten-fold
- activity in reducing csgD mRNA translation relative to RydC [4]: only half as active as RydC
- effect of adding Hfq on the translation regulation by the RydC mutant [4]: no effect

B4: csgD mRNA215 (ssRNA)
RNA: GAUGUAAUCCAUUAGUUUUAUAUUUUACCCAUUUAGGGCUGAUUUAUUACUACACACAGCAGUGCAACAUCUGUCAGUACUUCUGGUGCUUCUAUUUUAGAGGCAGCUGUCAGGUGUGCGAUCAAUAAAAAAAGCGGGGUUUCAUCAUGUUUAAUGAAGUCCAUAGUAUUCAUGGUCAUACAUUAUUGUUGAUCACUAAAUCUUCUUUGCAGGCG
- binding result [15]: binds

B5: Escherichia coli RydC H2 (nucleic acid)
chain: CUUCCGAUGUACUGGGCAAUUCUUCGCCUGUACCACGGGUCGGUUUUAGUACAGGCGUUUUCUU
modifications: chemistry not given here
- effect of adding Hfq on the translation regulation by the RydC mutant [4]: not beneficial
